One assay has as its target mouse TIGIT-His (mouse) (UniProt P86176). As to the kind of experiment: Block ELISA Mouse PVR-Fc:TIGIT-His (blocked ligand mouse PVR-Fc). Background: An ELISA detects its analyte on a solid surface through an enzyme-linked reagent.
For assay [1], the target named is cynomolgus TIGIT-AviFlag-biotin (cynomolgus monkey). As to the kind of experiment: Block ELISA Cyno PVR-Fc:Bio-TIGIT-AviFlag (blocked ligand cyno PVR-Fc).
The target of assay [2] is human TIGIT-AviFlag-biotin (human) (UniProt Q495A1). As to the kind of experiment: Block ELISA Human PVR-Fc:Bio-TIGIT-AviFlag (blocked ligand human PVR-Fc).
Assay [3] addresses cynomolgus monkey (cyno) TIGIT protein (cynomolgus monkey). Description: SPR, bivalent affinity. On the technique in general: SPR reads the build-up and loss of mass on a sensor chip optically.
Assay [4] concerns the target human TIGIT protein (human) (UniProt Q495A1). Description: SPR, bivalent affinity.
For assay [5] the target is unchanged. Description: SPR, monovalent affinity.
A further assay addresses murine TIGIT (murine) (UniProt P86176). As to the kind of experiment: SPR, monovalent affinity.
For assay [6], the target named is human TIGIT protein (human) (UniProt Q495A1). Description: SPR (BIACORE), N=2.
The target is the same in assay [7]. As to the kind of experiment: SPR (BIACORE) KD normalized to WT, N=2.

From US20220064286A1 come the findings set out here.

As a reminder, the IC50 is the concentration that gives 50% inhibition.

cynomolgus TIGIT-AviFlag-biotin (cynomolgus monkey), sequence (chain, as listed by the source): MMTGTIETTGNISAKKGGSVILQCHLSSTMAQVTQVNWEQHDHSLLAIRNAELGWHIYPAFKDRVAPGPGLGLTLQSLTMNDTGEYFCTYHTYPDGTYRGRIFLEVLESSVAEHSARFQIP
mouse TIGIT-His (mouse), sequence (P86176 29-148 limits assumed): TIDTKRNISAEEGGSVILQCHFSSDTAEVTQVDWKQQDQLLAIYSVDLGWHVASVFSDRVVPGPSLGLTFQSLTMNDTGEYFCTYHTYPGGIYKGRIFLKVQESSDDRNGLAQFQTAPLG
human TIGIT-AviFlag-biotin (human), sequence (Q495A1 22-141): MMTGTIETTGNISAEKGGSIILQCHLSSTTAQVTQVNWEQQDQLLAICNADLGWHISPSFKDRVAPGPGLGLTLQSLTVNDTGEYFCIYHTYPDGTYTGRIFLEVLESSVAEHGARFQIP
human TIGIT protein (human), sequence (Q495A1 22-141 limits assumed): as the sequence (Q495A1 22-141) above
10A7 Fab, sequence (VH): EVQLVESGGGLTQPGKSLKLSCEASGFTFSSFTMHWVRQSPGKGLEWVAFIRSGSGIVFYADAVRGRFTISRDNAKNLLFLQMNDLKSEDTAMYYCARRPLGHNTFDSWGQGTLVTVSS
10A7 Fab, sequence (VL): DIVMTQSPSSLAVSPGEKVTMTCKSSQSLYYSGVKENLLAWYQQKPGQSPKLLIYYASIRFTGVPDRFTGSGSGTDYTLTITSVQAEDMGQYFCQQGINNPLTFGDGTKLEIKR
10A7 (antibody), sequence (VH): as the sequence (VH) above
10A7 (antibody), sequence (VL): as the sequence (VL) above
cynomolgus monkey (cyno) TIGIT protein (cynomolgus monkey), sequence (chain, as listed by the source): as the sequence (chain, as listed by the source) above
murine TIGIT (murine), sequence (P86176 29-148 limits assumed): as the sequence (P86176 29-148 limits assumed) above

In the case of 10A7 Fab, the IC50 in the assay with mouse TIGIT-His (mouse) is 20.9 nM; in [1] it was > 133 nM; in assay [2] it was 21.2 nM.

Regarding xCSF1 Fab control, the IC50 (in the assay with mouse TIGIT-His (mouse); in assay [1]; in assay [2]) was > 133 nM in each case.

Consider 10A7 (antibody), for which the Kd came to 8.22 nM in assay [3]; 0.54 nM in assay [4]; 24 nM in assay [5]; 0.24 nM with murine TIGIT (murine); 44.7 nM in [6]. The substance also showed a Binding affinity drop vs. WT in [7] of 1 fold. Also, the IC50 with mouse TIGIT-His (mouse) came to 12.6 nM; in assay [1] it was 55.7 nM; in assay [2], 12.9 nM.
